± gives the standard deviation of the averaged measurements.
System: ATP
Assay: switch fluorescence ratio, 500 uM ATP over buffer (Cy3 cluster intensity, sum of 5 cycles each) (fold (ratio)); higher = stronger signal-on switching upon ATP binding; sequences stand for … in TCGTCGGCAGCGTCAGATGTGTATAAGAGACAGTTTTTTTTTTTTTTTTTTTTTTTTT…TC
Details: aptamer strand: ATP DNA aptamer (quencher-CACCTGGGGGAGTATTGCGGAGGAAGG + anchor), 100 nM annealed; ATP concentration: 500 uM
Procedure, shortened: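 After annealing to 100 nM quencher-labelled ATP aptamer, Cy3-labelled switching-strand clusters on a modified Illumina MiSeq flow-cell were imaged in selection buffer. A second image followed after 15 min with 500 uM ATP at 22 °C, and five such buffer/ATP cycles were done, each separated by NaOH stripping and re-annealing. The fluorescence ratio, averaged per switch-domain sequence, is summed target-cycle over summed buffer-cycle Cy3 intensity per cluster, with clusters outside 100-1000 RFU excluded.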
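Also: ATP exposure 15 min at 22 °C before imaging.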

Row | Sequence | switch fluorescence ratio
1 | AGCCTTTACA | 0.994 ± 0.011
2 | TACCTACATC | 1.26 ± 0.031
3 | GGAGTTGCGC | 1.03 ± 0.043
4 | TAAGGTTATG | 0.973 ± 0.017
5 | ATAATCCCGA | 1.02 ± 0.015
6 | TTATGCGTTT | 1.2 ± 0.28
7 | CGGCCTTACC | 1.334 ± 0.0037
8 | TGATAGTCTA | 1 ± 0.068
9 | GGGGGGCCGC | 1.03 ± 0.081
10 | TAACTGTAGG | 1.02 ± 0.033
11 | CGGTGGTGAT | 1.009 ± 0.0059
12 | TCGGGCTTTT | 0.969 ± 0.026
13 | TCCATAGTGA | 1.26 ± 0.085
14 | ATGTAAGGAG | 1.02 ± 0.018
15 | CGAGAGGAGG | 1.01 ± 0.02
16 | ATCGTTTTTA | 1.001 ± 0.004
17 | GATAGTGGTT | 1.022 ± 0.0078
18 | TATCAAAAAT | 0.994 ± 0.013
19 | CAAGAGGGTC | 1.04 ± 0.067
20 | TCCTGGCTGT | 1.09 ± 0.027
21 | TAAAAAAGTT | 1.12 ± 0.26
22 | GGTCTTACCA | 0.98367 ± 0.00036
23 | GTTATTTGGT | 0.992 ± 0.04
24 | TCCTATTAGG | 0.9888 ± 0.0054
25 | TTCGGGGGCA | 1.01 ± 0.052

Row | Sequence | switch fluorescence ratio
26 | AGGTGGTACA | 0.993 ± 0.03
27 | GCGGATTCGG | 0.9551 ± 0.0048
28 | AGTTTGAGGA | 1.01 ± 0.014
29 | AGAACGCGTA | 1.03 ± 0.013
30 | GTTTTCGCGA | 1.06 ± 0.04
31 | ACCGCTGGTT | 0.97 ± 0.014
32 | CTAGGCCTGG | 1.013 ± 0.0081
33 | TCGGCGGGCG | 0.986 ± 0.043
34 | GGATTTAAAA | 1.05 ± 0.044
35 | TCGGCAGGGA | 1.01 ± 0.051
36 | ATTACTATGG | 1.02 ± 0.02
37 | GCAGTTTTTG | 0.9746 ± 0.0056
38 | TAGAGGGTGC | 0.967 ± 0.052
39 | TTTTGTCATT | 1 ± 0.04
40 | GGGGCGTGTA | 0.977 ± 0.029
41 | GCCGAAGGGT | 1.02 ± 0.03
42 | TTGTTTTAGG | 0.987 ± 0.047
43 | TGATTTTCCA | 0.988 ± 0.021
44 | TTAGAAGGG | 0.965 ± 0.012
45 | TAACTACGAG | 1.07 ± 0.011
46 | TCAAGAGCTG | 1.08 ± 0.072
47 | ACGGAATCCT | 1.19 ± 0.018
48 | GATCGGGCTG | 0.903 ± 0.051
49 | ACGCCACTGT | 1.71 ± 0.038
50 | TTAAAGGGTA | 0.992 ± 0.054

Row | Sequence | switch fluorescence ratio
51 | GCAGAATTTG | 1.02 ± 0.031
52 | TGGTATTCGC | 1.01 ± 0.023
53 | GCGGCTTCGT | 1.02 ± 0.07
54 | GGGCAGGTGG | 1.08 ± 0.065
55 | TATATAATTT | 0.987 ± 0.012
56 | GAAAGAAATG | 0.9994 ± 0.003
57 | GACGGCAGTG | 1 ± 0.02
58 | ACGGTATTTT | 1.09 ± 0.052
59 | ACGGACTGGT | 1.18 ± 0.014
60 | AGGGATGTTG | 0.995 ± 0.013
61 | TTCCAGCTTT | 1.02 ± 0.024
62 | TGGTATAGTT | 0.981 ± 0.049
63 | ATCTGATAGC | 0.955 ± 0.047
64 | TTATTTCATT | 0.9966 ± 0.0062
65 | CAGGTTGCCT | 0.999 ± 0.046
66 | AAGTGACAGC | 1 ± 0.031
67 | TTTAGGGTG | 1.05 ± 0.061
68 | CTGGGGGGGT | 0.994 ± 0.036
69 | TAACGGAGAC | 1.35 ± 0.32
70 | GCGGGAAAGG | 0.978 ± 0.012
71 | AAATTGAACT | 1.03 ± 0.017
72 | TGATGGCAGT | 1.02 ± 0.031
73 | GAGACGGTCT | 1.05 ± 0.025
74 | CTGGATCCTG | 1.02 ± 0.053
75 | CGTAGGGCAG | 0.991 ± 0.049

Row | Sequence | switch fluorescence ratio
76 | ATGAAAGGGT | 0.998 ± 0.023
77 | TAATAGTAAG | 0.996 ± 0.053
78 | ACTCTTATTG | 0.988 ± 0.0039
79 | CGCCAGCAGC | 1.6 ± 0.035
80 | TGAATTTTAA | 0.995 ± 0.042
81 | ATGTGGGTCT | 1.02 ± 0.056
82 | TGCCGAAGGT | 1.03 ± 0.024
83 | TTTGAGGGCG | 1.01 ± 0.066
84 | TAAAGGATAT | 1.01 ± 0.014
85 | ACGGCGTCGC | 1.02 ± 0.026
86 | TTTGTGTATT | 0.97768 ± 0.00065
87 | AAAGTTCGAA | 0.977 ± 0.035
88 | GTATTGGGGC | 0.9807 ± 0.0029
89 | GACGAGGCAG | 2.27 ± 0.21
90 | GGAATCTGGG | 0.983 ± 0.05
91 | TGGCCTAGG | 1 ± 0.029
92 | TTTTTCTATG | 0.983 ± 0.05
93 | GGGGAGCAGC | 1.11 ± 0.22
94 | GAGGTGTCG | 1.04 ± 0.041
95 | GGTTGCAAGA | 1.01 ± 0.015
96 | GGGTTTGATC | 0.9749 ± 0.008
97 | GTGTGGCGGG | 0.996 ± 0.011
98 | GAAGAGGGTG | 1.03 ± 0.022
99 | AAGTACAAGG | 1.16 ± 0.1
100 | GGCGTATATC | 1.02 ± 0.023

From the supplement of paper PMC10126150
